Test results as given in patent publication US20250346679A1 (INVOX PHARMA, published 2025).

T1: cynomolgus CD137, cell-surface (cynomolgus, UniProt Q07011 24-255 (human entry))
T1 chain: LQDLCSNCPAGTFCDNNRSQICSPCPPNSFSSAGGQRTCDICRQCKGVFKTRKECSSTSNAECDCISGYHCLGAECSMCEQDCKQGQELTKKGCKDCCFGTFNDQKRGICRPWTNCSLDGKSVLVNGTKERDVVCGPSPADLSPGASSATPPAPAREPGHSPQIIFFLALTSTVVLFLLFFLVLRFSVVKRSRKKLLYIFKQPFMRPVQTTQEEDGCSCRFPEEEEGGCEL


How the values were obtained:
[1] = target: human CD137, cell-surface (human, UniProt Q07011 24-255); test: cell-based or functional assay
[2] = target: T1, cynomolgus CD137, cell-surface; test: cell-based or functional assay

EC50 (nM), hIL-2 release, CD8+ T cells, donor 171115A, HEK.hPD-L1 XL [1] [nM] | EC50 (nM), hIL-2 release, CD8+ T cells, donor 171115A, MDA-MB-231 XL [1] [nM] | EC50 (nM), hIL-2 release, CD8+ T cells, donor 171115B, HEK.hPD-L1 XL [1] [nM] | EC50 (nM), hIL-2 release, CD8+ T cells, donor 171115B, MDA-MB-231 XL [1] [nM] | EC50 (nM) (crosslinked), mIL-2 release, DO11.10.cCD137 with HEK.cyPD-L1 [2] | Emax (pg/ml) (crosslinked), mIL-2 release, DO11.10.cCD137 with HEK.cyPD-L1 [2] [pg/mL] | Binder
0.13 | 0.02 | 0.12 | 0.02 | 0.07 | 9660 | FS22-053-008-AA/G12v2 (bispecific antibody, human IgG1, kappa, L234A L235A) heavy: EVQLVQSGAEVKRPGASVKVSCKASGYTFTSYGISWVRQAPGQGLEWMGWISAYSGGTNYAQKLQGRVTMTTDTSTSTAYMELRSLRSDDTAVYYCARDLFPTIFGVSYYYYWGQGTLVTVSSASTKGPSVFPLAPSSKSTSGGTAALGCLVKDYFPEPVTVSWNSGALTSGVHTFPAVLQSSGLYSLSSVVTVPSSSLGTQTYICNVNHKPSNTKVDKKVEPKSCDKTHTCPPCPAPEAAGGPSVFLFPPKPKDTLMISRTPEVTCVVVDVSHEDPEVKFNWYVDGVEVHNAKTKPREEQYNSTYRVVSVLTVLHQDWLNGKEYKCKVSNKALPAPIEKTISKAKGQPREPQVYTLPPSRDELNPPYLFSNQVSLTCLVKGFYPSDIAVEWESNGQPENNYKTTPPVLDSDGSFFLYSKLTVDYWRWLEGNVFSCSVMHEALHNHYTQKSLSLSPG light: DIQMTQSPSTLSASVGDRVTITCRASQSISGRLAWYQQKPGKAPNLLIYEASNLESGVPSRFSGSGSGTEFTLTISSLQPEDFATYYCQQSYSWPRTFGQGTKVEIKRTVAAPSVFIFPPSDEQLKSGTASVVCLLNNFYPREAKVQWKVDNALQSGNSQESVTEQDSKDSTYSLSSTLTLSKADYEKHKVYACEVTHQGLSSPVTKSFNRGEC
0.15 | 0.01 | 0.12 | 0.01 | 0.1 | 9020 | FS22-053-017-AA/E05v2 (bispecific antibody, human IgG1, kappa, L234A L235A) heavy: EVQLVQSGAEVKRPGASVKVSCKASGYTFTSYGISWVRQAPGQGLEWMGWISAYSGGTNYAQKLQGRVTMTTDTSTSTAYMELRSLRSDDTAVYYCARDLFPTIFGVSYYYYWGQGTLVTVSSASTKGPSVFPLAPSSKSTSGGTAALGCLVKDYFPEPVTVSWNSGALTSGVHTFPAVLQSSGLYSLSSVVTVPSSSLGTQTYICNVNHKPSNTKVDKKVEPKSCDKTHTCPPCPAPEAAGGPSVFLFPPKPKDTLMISRTPEVTCVVVDVSHEDPEVKFNWYVDGVEVHNAKTKPREEQYNSTYRVVSVLTVLHQDWLNGKEYKCKVSNKALPAPIEKTISKAKGQPREPQVYTLPPSRDELNPPYLFSNQVSLTCLVKGFYPSDIAVEWESNGQPENNYKTTPPVLDSDGSFFLYSKLTVYHWRWLEGNVFSCSVMHEALHNHYTQKSLSLSPG light: DIQMTQSPSTLSASVGDRVTITCRASQSISGRLAWYQQKPGKAPNLLIYEASNLESGVPSRFSGSGSGTEFTLTISSLQPEDFATYYCQQSYSTPRVTFGQGTKVEIKRTVAAPSVFIFPPSDEQLKSGTASVVCLLNNFYPREAKVQWKVDNALQSGNSQESVTEQDSKDSTYSLSSTLTLSKADYEKHKVYACEVTHQGLSSPVTKSFNRGEC
